US8329429B2, “Method of enhancing recombinant protein production” (Induce Biologics Inc., priority 2007, dated 2012)

Columns and labels:
CHO-hBMP-7 cells = assay: ELISA for hBMP-7 in conditioned medium from CHO-hBMP-7 cells incubated with 9DR; type: cell-based, Chinese hamster; details: 24 hours, nutrient control
Description: Cell lines expressing the hBMP-7 transgene were prepared as per the methods described in Example 1.
Stable CHO cell lines expressing wild type BMP-7 cDNA were seeded into single wells of 24 well plates and cultured in the presence of increasing concentrations of the furin inhibitor 9DR. The conditioned medium was collected and aliquots were assayed for the presence of […] by ELISA. The amount of proBMP-7 present in the samples was estimated by western blot. Other aliquots of conditioned media were diluted with fresh medium and added to C2C12 cells to test for in vitro osteoinductive biological activity.

CHO-BMP-2 cells = type: cell-based, Chinese hamster
Description: Cell viability was assessed at each media collection using a ViCell cell viability analyzer (Beckman) following manufacturer's instructions.

C2C12 cells = assay: C2C12 alkaline phosphatase assay of rhBMP after PreScission digestion; type: cell-based; details: for ALP activity (U/μg protein) mean ± SD: n=4
Source text: Alkaline phosphatase induction in C2C12 cells: The activity of recombinant hBMP-2 protein is quantitated based upon induction of alkaline phosphatase in in vitro cultured C2C12 cells, as has been described (see, e.g., Peel et al. J Craniofacial Surg. 2003; 14:284-291 and Hu et al. Growth Factors 2004; 22:29033).
C2C12 cells (ATCC accession number CRL-1772, Manassas, Va.) are passaged before confluent and resuspended at 0.5×10^5 cells/ml in MEM supplemented with 15% heat-inactivated fetal bovine serum, antibiotics and 50 μg/ml ascorbic acid. One ml of cell suspension is seeded per well of a 24 well tissue culture plate (BD Falcon, Fisher Scientific Cat #08-772-1). An aliquot of test BMP-2 sample is added and the cultures maintained at 37° C. and 5% CO2. Test BMP-2 samples included conditioned media, purified recombinant hBMP-2 isolated from conditioned media by heparin affinity chromatography, and as a positive control a commercially available purified recombinant hBMP-2 (R&D Systems, Minneapolis, USA). Control cultures (cultured in media without added BMP-2 sample) are cultured for 2 to 7 days. Medium is changed every two days.
At harvest cultures are rinsed with Tris buffered saline (20 mM Tris, 137 mM NaCl, pH 7.4) and M-Per lysis buffer (Pierce Biotechnology Inc., Rockford, Ill., catalogue #78501) is added. The cell layer is scraped into Eppendorf tubes and sonicated. The lysate is centrifuged at 5000×g at 5° C. for 10 minutes, and the supernatant assayed for alkaline phosphatase (ALP) by monitoring the hydrolysis of nitrophenol phosphate in alkaline buffer (Sigma-Aldrich, St. Louis Mo., catalog P5899) as described in Peel et al. J Craniofacial Surg. 2003; 14:284-291 or by using the Alkaline Phosphatase detection kit, Fluorescence (Sigma-Aldrich, catalogue #APF) according to manufacturer's instructions. To normalize the ALP activity the cellular protein content in each well is also assayed using the Coomasie (Bradford) Protein Assay (Pierce Biotechnology Inc., catalogue #23200). The normalized ALP activity for each sample is calculated by dividing the ALP activity per well by the protein content per well. An activity score is calculated by dividing the ALP activity for each sample by the mean ALP activity of the control and is compared to the score achieved by the positive BMP control.
Preparation of test materials: PreScission protease was obtained from Amersham Biosciences (GE Healthcare, Buckinghamshire, U.K) and was prepared according to the manufacturer's instructions. Recombinant hBMP-2 and rhBMP-7 (both CHO cell produced) were obtained from R&D Systems. The rhBMP samples were resuspended in 4 mM HCl to a final concentration of 10 μg/ml. Bovine serum albumin (BSA) was not included so that the only substrate for the protease was BMP. The cleavage buffer was prepared (50 mM Tris-HCl, 150 mM NaCl, 1 mM EDTA, pH 7).
Assessment of activity: Samples underwent digestion at room temperature for 6 hours. Reactions were stopped by freezing at −20° C. Digestion samples were diluted in alpha MEM+15% FBS and tested for BMP activity using the C2C12 assay described in Example 1.

N=C(N)NCCC[C@@H](N)C(=O)O [DR, D arginine] was tested, and the “mature hBMP-7 in medium versus medium only” value (CHO-hBMP-7 cells) was “no difference”.

N=C(N)NCCC[C@@H](N)C(=O)N[C@H](CCCNC(=N)N)C(=O)N[C@H](CCCNC(=N)N)C(=O)N[C@H](CCCNC(=N)N)C(=O)N[C@H](CCCNC(=N)N)C(=O)N[C@H](CCCNC(=N)N)C(=O)N[C@H](CCCNC(=N)N)C(=O)N[C@H](CCCNC(=N)N)C(=O)N[C@H](CCCNC(=N)N)C(N)=O [9DR, nona-D-arginine amide] was tested, and the “effect on cell viability” value (CHO-BMP-2 cells) was “did not affect cell viability”.

B1: rhBMP-7: recombinant human BMP-7, CHO cell produced, obtained from R&D Systems (protein)
chain: STGSKQRSQNRSKTPKNQEALRMANVAENSSSDQRQACKKHELYVSFRDLGWQDWIIAPEGYAAYYCEGECAFPLNSYMNATNHAIVQTLVHFINPETVPKPCCAPTQLNAISVLYFDDSSNVILKKYRNMVVRACGCH
For B1, the “ALP activity (U/μg protein) mean ± SD” value (C2C12 cells; group 2: 20 μl rhBMP (10 μg/ml), no protease, no cleavage buffer (unincubated)) was 7.1 ± 0.5 U/μg protein, the “ALP activity (U/μg protein) mean ± SD” value (C2C12 cells; group 3: 20 μl rhBMP + 15 μl PreScission protease + 165 μl cleavage buffer, room temperature 6 hours) was 2.9 ± 0.2 U/μg protein and the “ALP activity (U/μg protein) mean ± SD” value (C2C12 cells; group 4: 20 μl rhBMP + 180 μl cleavage buffer alone, room temperature 6 hours) was 4.0 ± 0.3 U/μg protein. For the same molecule, the “activity after PreScission digestion” value (C2C12 cells; room temperature for 6 hours) was “remained active” and the “activity after PreScission digestion compared to control BMP incubated in cleavage buffer alone” value (C2C12 cells; room temperature for 6 hours) was “No loss of activity”.
